Measured values from patent publication US20150344570A1 (published 2015).
Changes are numbered by the printed parent chain.

T1: FcgRIIaR (human, UniProt P12318 34-217)
T1 construct: extracellular domain; also called FcγRIIa R; FcgRIIa type R; not shown: His tag attached to the C terminus
T1 sequence (looked up): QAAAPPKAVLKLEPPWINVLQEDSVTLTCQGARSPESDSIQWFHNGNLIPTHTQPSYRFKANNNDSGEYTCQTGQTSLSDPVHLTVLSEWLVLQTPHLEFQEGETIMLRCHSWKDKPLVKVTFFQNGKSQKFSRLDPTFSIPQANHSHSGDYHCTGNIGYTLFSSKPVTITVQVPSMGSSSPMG

T2: FcgRIIaH (human, UniProt P12318 34-217)
T2 construct: extracellular domain; also called FcγRIIa H; FcgRIIa type H; not shown: His tag attached to the C terminus
T2 sequence (looked up): T1 sequence (looked up) with R134H

T3: FcgRIIb (human, UniProt P31994 43-217)
T3 construct: extracellular domain; also called FcγRIIb; 2b; not shown: His tag attached to the C terminus
T3 sequence (looked up): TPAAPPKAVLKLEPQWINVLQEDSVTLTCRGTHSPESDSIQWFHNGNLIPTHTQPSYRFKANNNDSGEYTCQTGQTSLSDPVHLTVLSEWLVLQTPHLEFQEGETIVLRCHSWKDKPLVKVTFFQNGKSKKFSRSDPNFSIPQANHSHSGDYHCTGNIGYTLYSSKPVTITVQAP

T4: FcγRIIa H (FcγRIIa, allotype with His at position 131), extracellular domain with C-terminal His tag (human, UniProt P12318 34-217)
T4 construct: extracellular domain; also called FcgRIIa H; 2aH; not shown: His tag at the C terminus
T4 sequence (looked up): T1 sequence (looked up) with R134H

T5: FcγRIIb, extracellular domain with C-terminal His tag (human, UniProt P31994 43-217)
T5 construct: extracellular domain; also called FcgRIIb; 2b; not shown: His tag at the C terminus
T5 sequence (looked up): T3 sequence (looked up)

B1: H240-Kn213/H240-Hl076/L73-k0 (antibody, human IgG1, kappa)
heavy 1: QDQLVQSGAEVKKPGASVKVSCKASGFNIKDTYIQWVRQAPGQGLEWMGRIDPLRKQTKYREKFEGRVTITADTSTNTAYMELSSLRSEDTAVYYCVRSGREFDYWGQGTLVTVSSASTKGPSVFPLAPSSKSTSGGTAALGCLVKDYFPEPVTVSWNSGALTSGVHTFPAVLQSSGLYSLSSVVTVPSSSLGTQTYICNVNHKPSNTKVDKKVEPKSCDKTHTCPPCPAPEAQWGPMVFLFPPKPKDTLMISRTPEVTCVVVDVSDEEPEVKFNWYVDGVEVHNAKTKPREEQYNATYRVVSVLTVLHQDWLNGKEYKCKVSNKALPAPIEKTISKAKGQPREPQVCTLPPSRDELTKNQVSLWCLVKGFYPSDIAVEWESNGQPENNYKTTPPVLDSDGSFFLYSKLTVDKSRWQQGNVFSCSVMHEALHNHYTQKSLSLSP
heavy 2: QDQLVQSGAEVKKPGASVKVSCKASGFNIKDTYIQWVRQAPGQGLEWMGRIDPLRKQTKYREKFEGRVTITADTSTNTAYMELSSLRSEDTAVYYCVRSGREFDYWGQGTLVTVSSASTKGPSVFPLAPSSKSTSGGTAALGCLVKDYFPEPVTVSWNSGALTSGVHTFPAVLQSSGLYSLSSVVTVPSSSLGTQTYICNVNHKPSNTKVDKKVEPKSCDKTHTCPPCPAPELLGGPSVFLFPPKPKDTLMISRTPEVTCVVVDVSHEEPEVKFNWYVDGVEVHNAKTKPREEQYNSTYRVVSVLTVLHQDWLNGKEYKCKVSNDALPMPIEETISKAKGQPREPQVYTLPPSRCELTKNQVSLSCAVKGFYPSDIAVEWESNGQPENNYKTTPPVLDSDGSFFLVSKLTVDKSRWQQGNVFSCSVMHEALHNHYTQKSLSLSP
light: DIQMTQSPSSLSASVGDRVTITCRASQDIHKYIAWYQQKPGQAPRLLIQYTSTLQPGVPSRFSGSGSGTDYTFTISSLQPEDIATYYCLQYEQLRTFGGGTKVEIKRTVAAPSVFIFPPSDEQLKSGTASVVCLLNNFYPREAKVQWKVDNALQSGNSQESVTEQDSKDSTYSLSSTLTLSKADYEKHKVYACEVTHQGLSSPVTKSFNRGEC
notes: Anti-epiregulin heterodimerized IgG1, knobs-into-holes
B2: H240-Kn214/H240-Hl076/L73-k0 (antibody, human IgG1, kappa)
heavy 1: B1 heavy 1 with A233G
heavy 2: B1 heavy 2
light: B1 light
notes: as for B1
B3: H240-Kn219/H240-Hl068/L73-k0 (antibody, human IgG1, kappa)
heavy 1: B1 heavy 1 with A233I, Q234Y, E269D, A326D
heavy 2: B1 heavy 2 with M329K
light: B1 light
notes: as for B1
B4: H240-Kn215/H240-Hl076/L73-k0 (antibody, human IgG1, kappa)
heavy 1: B1 heavy 1 with A233H
heavy 2: B1 heavy 2
light: B1 light
notes: as for B1
B5: H240-Kn220/H240-Hl068/L73-k0 (antibody, human IgG1, kappa)
heavy 1: B1 heavy 1 with A233M, Q234Y, E269D, A326D
heavy 2: B1 heavy 2 with M329K
light: B1 light
notes: as for B1
B6: H240-Kn223/H240-Hl068/L73-k0 (antibody, human IgG1, kappa)
heavy 1: B1 heavy 1 with A233G, Q234Y, E269D, A326D
heavy 2: B1 heavy 2 with M329K
light: B1 light
notes: as for B1
B7: H240-Kn216/H240-Hl068/L73-k0 (antibody, human IgG1, kappa)
heavy 1: B1 heavy 1 with A233V, Q234Y, E269D, A326D
heavy 2: B1 heavy 2 with M329K
light: B1 light
notes: as for B1
B8: H240-Kn221/H240-Hl068/L73-k0 (antibody, human IgG1, kappa)
heavy 1: B1 heavy 1 with A233T, Q234Y, E269D, A326D
heavy 2: B1 heavy 2 with M329K
light: B1 light
notes: as for B1
B9: H240-Kn222/H240-Hl068/L73-k0 (antibody, human IgG1, kappa)
heavy 1: B1 heavy 1 with Q234Y, E269D, A326D
heavy 2: B1 heavy 2 with M329K
light: B1 light
notes: as for B1
B10: H240-Kn224/H240-Hl068/L73-k0 (antibody, human IgG1, kappa)
heavy 1: B1 heavy 1 with A233H, Q234Y, E269D, A326D
heavy 2: B1 heavy 2 with M329K
light: B1 light
notes: as for B1
B11: H240-Kn217/H240-Hl068/L73-k0 (antibody, human IgG1, kappa)
heavy 1: B1 heavy 1 with A233D, Q234Y, E269D, A326D
heavy 2: B1 heavy 2 with M329K
light: B1 light
notes: as for B1
B12: H240-Kn218/H240-Hl068/L73-k0 (antibody, human IgG1, kappa)
heavy 1: B1 heavy 1 with A233Q, Q234Y, E269D, A326D
heavy 2: B1 heavy 2 with M329K
light: B1 light
notes: as for B1
B13: GpH7-A5/GpH7-B3 variant A327_03V/GpL16-k0 (antibody, human IgG1, kappa)
heavy 1: not shown
heavy 2: not shown
light: DIVMTQSPLSLPVTPGEPASISCQASESLVHSNRNTYLHWYLQKPGQSPQLLIYKVSNRFSGVPDRFSGSGSGTDFTLKISRVEAEDVGVYYCSQNTHVPPTFGQGTKVEIERTVAAPSVFIFPPSDEQLKSGTASVVCLLNNFYPREAKVQWKVDNALQSGNSQESVTEQDSKDSTYSLSSTLTLSKADYEKHKVYACEVTHQGLSSPVTKSFNRGEC
notes: Heterodimerized anti-glypican-3 IgG1; mutation in one H chain only; also called He Ab
B14: GpH7-A5/GpH7-B3 variant A327_10E/GpL16-k0 (antibody, human IgG1, kappa)
heavy 1: not shown
heavy 2: not shown
light: B13 light
notes: as for B13
B15: GpH7-A5/GpH7-B3 variant A327_14T/GpL16-k0 (antibody, human IgG1, kappa)
heavy 1: not shown
heavy 2: not shown
light: B13 light
notes: as for B13
B16: GpH7-A5/GpH7-B3 variant A327_07I/GpL16-k0 (antibody, human IgG1, kappa)
heavy 1: not shown
heavy 2: not shown
light: B13 light
notes: as for B13
B17: GpH7-A5/GpH7-B3 variant A327_18N/GpL16-k0 (antibody, human IgG1, kappa)
heavy 1: not shown
heavy 2: not shown
light: B13 light
notes: as for B13
B18: GpH7-A5/GpH7-B3 variant A327_09D/GpL16-k0 (antibody, human IgG1, kappa)
heavy 1: not shown
heavy 2: not shown
light: B13 light
notes: as for B13
B19: GpH7-A5/GpH7-B3 variant A327_08L/GpL16-k0 (antibody, human IgG1, kappa)
heavy 1: not shown
heavy 2: not shown
light: B13 light
notes: as for B13

Assays:
FcgRIIIaV = biological target: T6, FcgRIIIaV (human, UniProt P08637 17-208); assay: SPR (Biacore); KD of H240-Kn033/H240-Hl033/L73-k0 divided by KD of this variant
T6 construct: extracellular domain; also called FcγRIIIa V; 3aV; not shown: His tag attached to the C terminus
T6 sequence (P08637 17-208 F176V limits assumed): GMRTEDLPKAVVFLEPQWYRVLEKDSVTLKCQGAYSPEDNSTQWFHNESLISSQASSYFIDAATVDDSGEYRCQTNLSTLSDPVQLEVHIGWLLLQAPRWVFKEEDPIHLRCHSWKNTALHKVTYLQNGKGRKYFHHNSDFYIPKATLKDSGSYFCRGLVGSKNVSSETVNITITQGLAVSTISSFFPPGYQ

FcgRIIaR = biological target: T1, FcgRIIaR; assay: as above
FcgRIIaH = biological target: T2, FcgRIIaH; assay: as above
FcgRIIb = biological target: T3, FcgRIIb; assay: as above
FcgRIIIaF = biological target: T7, FcgRIIIaF (human, UniProt P08637 17-208); assay: as above
T7 construct: extracellular domain; also called FcγRIIIa F; 3aF; not shown: His tag attached to the C terminus
T7 sequence (P08637 17-208): as the sequence (P08637 17-208 F176V limits assumed) above, with V160F counted along it

[1] = biological target: T4, FcγRIIa H (FcγRIIa, allotype with His …); assay: SPR (Biacore); He/Con_2aH divided by He/Con_2b (FcγRIIb)
[2] = biological target: T5, FcγRIIb, extracellular domain with …; assay: SPR (Biacore), relative binding vs GpH7-A5/GpH7-B3/GpL16-k0
[3] = biological target: T4, FcγRIIa H (FcγRIIa, allotype with His …); assay: as above

Binder | fold 3aV (FcgRIIIaV) [fold] | fold 2aR (FcgRIIaR) [fold] | fold 2aH (FcgRIIaH) [fold] | fold 2b (FcgRIIb) [fold] | fold 3aF (FcgRIIIaF) [fold] | He_2aH/2b (IIaH/IIb) [1] [ratio] | He/Con_2b [2] | He/Con_2aH [3]
B1 | 65.8 | 0.9 | 2.5 | 0.5 | 112 | – | – | –
B2 | 60 | 0.7 | 1.6 | 0.5 | 85.3 | – | – | –
B3 | 98 | 52.9 | 26 | 36.7 | 107 | – | – | –
B4 | 70.6 | 0.7 | 2.1 | 0.5 | 112 | – | – | –
B5 | 96 | 29.6 | 15.3 | 20.6 | 82.9 | – | – | –
B6 | 84.2 | 11.9 | 5.5 | 11.8 | 69 | – | – | –
B7 | 104 | 32.2 | 16.3 | 20.6 | 85.3 | – | – | –
B8 | 102 | 25.5 | 11.8 | 15 | 107 | – | – | –
B9 | 88.9 | 26.4 | 10.6 | 17.4 | 87.9 | – | – | –
B10 | 90.6 | 13.7 | 9.1 | 9.2 | 72.5 | – | – | –
B11 | 126 | 26.4 | 6.8 | 27.5 | 121 | – | – | –
B12 | 96 | 20 | 15.8 | 15 | 82.9 | – | – | –
B13 | – | – | – | – | – | 0.54 | 94.7 % of HeCon Ab (=100) | 51 % of HeCon Ab (=100)
B14 | – | – | – | – | – | 0.65 | 140 % of HeCon Ab (=100) | 91.3 % of HeCon Ab (=100)
B15 | – | – | – | – | – | 0.51 | 89.4 % of HeCon Ab (=100) | 45.6 % of HeCon Ab (=100)
B16 | – | – | – | – | – | 0.46 | 127 % of HeCon Ab (=100) | 58.4 % of HeCon Ab (=100)
B17 | – | – | – | – | – | 0.59 | 113 % of HeCon Ab (=100) | 66.8 % of HeCon Ab (=100)
B18 | – | – | – | – | – | 0.61 | 172 % of HeCon Ab (=100) | 105 % of HeCon Ab (=100)
B19 | – | – | – | – | – | 0.74 | 63.1 % of HeCon Ab (=100) | 46.9 % of HeCon Ab (=100)
